Where two headings read alike, the source gives them in different places.
How the values were obtained:
[1] = system: BifR (Burkholderia thailandensis E264); assay: EMSA
[2] = system: BifR (Burkholderia thailandensis E264); assay: EMSA; remark: listed apart in the source
[3] = molecular target: BifR (biofilm regulator), MarR homologue from Burkholderia thailandensis E264 (Burkholderia thailandensis E264); assay: cross-linking
[4] = molecular target: BifR (biofilm regulator), MarR homologue from Burkholderia thailandensis E264 (Burkholderia thailandensis E264); assay: SEC
[5] = molecular target: BifR (biofilm regulator), MarR homologue from Burkholderia thailandensis E264 (Burkholderia thailandensis E264); assay: SEC; remark: listed apart in the source

Substance | Kd [1] | Kd [2] | stoichiometry N [3] | stoichiometry N [4] | stoichiometry N [5]
355 bp ecsC-emrB operator DNA | 0.9 nM | 1.4 nM | – | – | –
BifR (biofilm regulator), MarR homologue from Burkholderia thailandensis E264 (natural protein) | – | – | 2 | 2 | 4
